Assay results taken from EP4628507A1.
Like-named read-outs stand apart in the source and are kept apart here. One block for each substance: values may come before it.

Assays:
[1] = target: human CD16A-V176 on CHO / CHO-K1 cells (human) (UniProt P08637); assay: flow cytometry on CHO-K1-CD16A V176 cells
[2] = target: human CLDN18.2 on cells (NUGC4-hi18.2 cells; SNU601 cells in the ADCC assay) (human) (UniProt P56856); assay: flow cytometry on NUGC4-hi18.2 cells
[3] = target: human CLDN18.2 on cells (NUGC4-hi18.2 cells; SNU601 cells in the ADCC assay) (human) (UniProt P56856); assay: flow cytometry on NUGC4-hi18.2 cells, isotype control
[4] = target: human CD16A-V176 on CHO / CHO-K1 cells (human) (UniProt P08637); assay: flow cytometry on CHO-K1-CD16A V176 cells, isotype control
[5] = target: human 4-1BB on the surface of HEK293-Hu4-1BB cells (human) (UniProt Q07011); assay: cell-based or functional assay
Chain of human 4-1BB on the surface of HEK293-Hu4-1BB cells (human) (Q07011 24-255): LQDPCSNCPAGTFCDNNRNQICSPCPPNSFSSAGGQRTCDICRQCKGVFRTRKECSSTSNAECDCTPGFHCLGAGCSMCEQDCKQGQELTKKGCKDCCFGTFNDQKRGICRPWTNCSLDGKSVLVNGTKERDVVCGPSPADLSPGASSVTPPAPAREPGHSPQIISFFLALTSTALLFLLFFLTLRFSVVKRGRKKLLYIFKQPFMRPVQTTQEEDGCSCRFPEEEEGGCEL

[6] = target: human 4-1BB on the surface of HEK293-Hu4-1BB cells (human) (UniProt Q07011); assay: flow cytometry on HEK293-Hu4-1BB cells, isotype control
[7] = target: human 4-1BB on the surface of HEK293-Hu4-1BB cells (human) (UniProt Q07011); assay: as above; remark: listed apart in the source
[8] = target: human 4-1BB on the surface of HEK293-Hu4-1BB cells (human) (UniProt Q07011); assay: as above; remark: listed apart in the source
[9] = target: human CLDN18.2 on cells (NUGC4-hi18.2 cells; SNU601 cells in the ADCC assay) (human) (UniProt P56856); assay: cell-based or functional assay
[10] = target: human 4-1BB on the surface of HEK293-Hu4-1BB cells (human) (UniProt Q07011); assay: cell-based or functional assay; remark: listed apart in the source

Chain of human CD16A-V176 on CHO / CHO-K1 cells (human) (P08637 17-254 F176V): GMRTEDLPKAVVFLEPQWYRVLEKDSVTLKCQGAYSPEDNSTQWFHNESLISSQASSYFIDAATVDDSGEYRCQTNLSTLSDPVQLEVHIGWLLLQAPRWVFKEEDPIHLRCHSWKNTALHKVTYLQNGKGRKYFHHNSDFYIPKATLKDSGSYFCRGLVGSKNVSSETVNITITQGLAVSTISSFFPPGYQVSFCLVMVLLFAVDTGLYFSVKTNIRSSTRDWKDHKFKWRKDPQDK

EC50 [1]: 14.8 nM
Maximal fluorescence value [1]: 3390
Substance: IMAB362 (antibody)

EC50 [2]: 16.2 nM
Maximal fluorescence value [2]: 89300
Maximal fluorescence value [1]: 113
Substance: TJ-CD4B (bispecific antibody)

Maximal fluorescence value [3]: 107
Maximal fluorescence value [4]: 1590
Fold change in Emax, 4-1BB/NF-κB luciferase reporter, CLDN18.2 cross-linking [5]: 1.15 fold
Fold change in Emax, 4-1BB/NF-κB luciferase reporter, no cross-linking [5]: 1.17 fold
Maximal fluorescence value [6]: 67
Maximal fluorescence value [7]: 123
Maximal fluorescence value [8]: 106
ADCP maximum phagocytosis rate, macrophages against NUGC4-hi18.2 cells [9]: 19.8%
Emax, 4-1BB/NF-κB luciferase reporter, FcγRIIb cross-linking (relative to the antibody-free group) [10]: 1.12
Emax, 4-1BB/NF-κB luciferase reporter, no FcγRIIb cross-linking (relative to the antibody-free group) [10]: 1.1
Fold change in Emax, 4-1BB/NF-κB luciferase reporter, CLDN18.2 cross-linking [10]: 1.17 fold
Fold change in Emax, 4-1BB/NF-κB luciferase reporter, no CLDN18.2 cross-linking [10]: 1.16 fold
Substance: isotype IgG1 antibody (control)
ADCC maximum killing rate, NUGC4-hi18.2 target cells, PBMC donor S2001102 (V176) [9]: 21.8%
ADCC maximum killing rate, NUGC4-hi18.2 target cells, PBMC donor SC190061 (F176) [9]: 10.7%
ADCC maximum killing rate, SNU601 target cells, PBMC donor S2001102 (V176) [9]: 22.7%
ADCC maximum killing rate, SNU601 target cells, PBMC donor SC190061 (F176) [9]: 11.4%

Fold change in Emax, 4-1BB/NF-κB luciferase reporter, CLDN18.2 cross-linking [5]: 1.42 fold
Fold change in Emax, 4-1BB/NF-κB luciferase reporter, no cross-linking [5]: 1.13 fold
Substance: ADG106 (antibody)
